The source of these data is patent US20130287702A1 (CASE WESTERN RESERVE UNIVERSITY, published 2013).

Where no end group is shown, it is not given here.

The target of experiment [1] is T1, proteolytically cleaved PTPµ extracellular fragment in tumors of human LN-229 glioma cells (human, UniProt P28827 21-477, limits assumed).
T1 construct: The target is endogenous material deposited in tumor tissue, not a purified protein; also called proteolyzed extracellular fragment of PTPµ; PTPµ fragment
T1 sequence: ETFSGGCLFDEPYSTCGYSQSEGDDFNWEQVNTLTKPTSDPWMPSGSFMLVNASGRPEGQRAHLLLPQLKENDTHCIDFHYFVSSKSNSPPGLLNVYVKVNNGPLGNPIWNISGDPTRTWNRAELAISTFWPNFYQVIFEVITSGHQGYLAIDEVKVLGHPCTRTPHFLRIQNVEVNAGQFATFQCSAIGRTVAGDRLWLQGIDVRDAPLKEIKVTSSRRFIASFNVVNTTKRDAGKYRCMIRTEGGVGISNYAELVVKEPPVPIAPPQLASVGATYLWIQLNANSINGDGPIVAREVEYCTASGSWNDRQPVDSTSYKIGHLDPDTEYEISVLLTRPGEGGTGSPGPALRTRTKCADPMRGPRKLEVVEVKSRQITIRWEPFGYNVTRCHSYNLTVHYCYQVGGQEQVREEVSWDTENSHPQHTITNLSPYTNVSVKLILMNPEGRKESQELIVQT
The experiment can be described thus: in vivo labeling of glioma intracranial tumors, Cy5 cryo-imaging.

Experiment [2] deals with T1, proteolytically cleaved PTPµ …. The experiment can be described thus: fluorescent probe labeling of fixed LN-229-GFP flank tumor sections. From the text: The sections were rinsed with phosphate-buffered saline, coverslipped with Citifluor Antifadent Mounting Medium (Electron Microscopy Sciences), and imaged immediately at ×20 magnification on a Leica DMI 6000 B inverted microscope (Leica Microsystems GmbH, Wetzlar, Germany) using a Retiga EXi camera (QImaging, Surrey, BC) and Metamorph software (MolecularDevices, Downington, Pa.). Images were acquired across the entire tissue using bright-field and fluorescence optics for fluorescein (GFP) and Texas Red (probe). The resultant images were tiled and flattened to form a single composite image using Metamorph software.
Zoomed MR and corresponding heat map images for the tumor are shown (FIG. 15A). […] The corresponding flank tumor sections were incubated with SBK2-Texas Red or scrambled Texas Red probes. SBK2-Texas Red labeled the entire tumor with greatest intensity in the tumor center (FIG. 15B). This pattern is similar to that observed in the MR images following labeling with the SBK2-Tris-(Gd-DOTA)₃ probe. […] Anti-human vimentin antibody was used to label all the human cells in the mouse flank. […] Similar gradients of PTPμ extracellular fragment, as detected by the SBK2 probe, have been observed previously.

B1: scrambled-Cy5 probe (peptide)
peptide: GFTQPETGTDNDLWSVDNEK
modifications: not fully specified (N-terminus)
notes: Same uncertainty about the added N-terminal glycine as for SBK2-Cy5; also called scrambled probe; scrambled version of the PTPµ probe
Consider B1, for which the binding result in experiment [1] was “no binding”.
On to GFTQPETGTDNDLWSVDNEK (not fully specified (N-terminus); also: Texas Red label, site not given here) [scrambled Texas Red probe], for which the binding result in experiment [2] was “no binding (tested: 1 µM)”.
